Results as given in publication PMC6265248.

Molecular target: C. reinhardtii Rubisco (CrRubisco), L8S8 holoenzyme (C. reinhardtii (endogenous in strain CC-2677)) (UniProt P00877)
Test: co-sedimentation; droplet sedimentation assay of demixed (phase-separated) EPYC1-Rubisco droplets, with microscopy: 10 µl reactions, 10 min, 20 mM Tris-HCl pH 8.0, 50 mM NaCl, room temperature, 21,100 x g, SDS-PAGE and densitometry of pellet and supernatant

stoichiometry N (EPYC1:Rubisco): 1 to 4
stoichiometry N (EPYC1 molecules per Rubisco holoenzyme): 2
Substance: Essential Pyrenoid Component 1 (EPYC1), residues 46-317 (natural protein)
